The target in the data set is insulin (UniProt P01308;P01308 25-54;90-110). Put plainly: circular dichroism; 20 uM aptamer, 100 nM insulin; G4 spectrum (min 245 nm, max 275 nm) after interaction with insulin; Binding buffer 20 mM Tris-HCl, 140 mM NaCl, 5 mM KCl, 1 mM CaCl2, 1 mM MgCl2, pH 7.4, room temperature, 40-60 min; then hemin in DMSO 1 h and TMB-H2O2; random N30 control is a pool and not listed. The conditions noted are these: protein: commercial, copies: 1;1, label: 5' biotin.
Chain of insulin (P01308 25-54, chain 1 of 2): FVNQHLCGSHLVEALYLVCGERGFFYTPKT
Chain of insulin (P01308 90-110, chain 2 of 2): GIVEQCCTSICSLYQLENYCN

On to GGTGGTGGGGGGGGTTGGTAGGGTGTCTTC (structured_DNA) [G-quadruplex insulin aptamer (G-rich aptamer)], for which the binding result is “binds”.

Values taken from PMC5882713, “Sensitive colorimetric assay using insulin G-quadruplex aptamer arrays on DNA nanotubes coupled with magnetic nanoparticles”.
